# Assay results taken from patent US20250319190A1, “APOE LIPOPROTEIN SYSTEMS” (Kisbee Therapeutics, Inc., priority 2022, published 2025).
# Numbering of substitutions follows the chain as printed.
# B1: LPS2: lipoprotein system of PP10 and POPC, apolipoprotein:lipid 1:100 (other)
# chain: KVEQAVETEPEPELRQQTEWQSGQRWELALGRFWDYLRWVQTLSEQVQEELLSSQVTQELRALMDETMKELKAYKSELEEQLTPVAEETRARLSKELQAAQARLGADMEDVCGRLVQYRGEVQAMLGQSTEELRVRLASHLRKLRKRLLRDADDLQKRLAVYQAGAREGAERGLSAIRERLGDRLDEVKEQVAEVRAKLEEQAQQIRLQAEAFQARLKSWFEPLVEDMQRQWAGLVEKVQAAVGTSAAPVPSDNH
# notes: Discoidal lipoprotein particle with POPC; Engineered truncation variant of APOE3; also called PP10/POPC
# B2: LPS2 lipoprotein system (PP10 with POPC, polypeptide:lipid 1:100) (other)
# chain: B1 chain
# notes: Discoidal lipoprotein particle with POPC at 1:100 mol/mol; also called PP10/POPC
# B3: LPS1: lipoprotein system of PP9 and POPC, apolipoprotein:lipid 1:105 (other)
# chain: KVEQAVETEPEPELRQQTEWQSGQRWELALGRFWDYLRWVQTLSEQVQEELLSSQVTQELRALMDETMKELKAYKSELEEQLTPVAEETRARLSKELQAAQARLGADMEDVCGRLVQYRGEVQAMLGQSTEELRVRLASHLRKLRKRLLRDADDLQKRLAVYQAGAREGAERGLSAIRERLGPLVEQGRVRAATVGSLAGQPLQERAQAWGERLRARMEEMGSRTRDRLDEVKEQVAAKLEEQAQQIRLQAEAFQARLKPLVEDMQRQWAGLVEKVQAAVGTSAAPVPSDNH
# notes: Discoidal lipoprotein particle with POPC; Engineered truncation variant of APOE3; also called PP9/POPC
# B4: PP124: novel truncated apolipoprotein variant SEQ ID NO: 876 (protein)
# chain: B3 chain with V236E
# B5: LPS1 lipoprotein system (PP9 with POPC, polypeptide:lipid 1:105) (other)
# chain: B3 chain
# notes: Discoidal lipoprotein particle with POPC at 1:105 mol/mol; also called PP9/POPC
# B6: PP125: novel truncated apolipoprotein variant SEQ ID NO: 877 (protein)
# chain: B3 chain with R136S, V236E
# B7: LPS3: lipoprotein system of PP11 and POPC, apolipoprotein:lipid 1:90 (other)
# chain: KVEQAVETEPEPELRQQTEWQSGQRWELALGRFWDYLRWVQTLSEQVQEELLSSQVTQELRALMDETMKELKAYKSELEEQLTPVAEETRARLSKELQAAQARLGADMEDVCGRLVQYRGEVQAMLGQSTEELRVRLASHLRKLRKRLLRDADDLQKRLAVYQAGAREGAERGLSAIRERLGDRLDEVKEQVAAKLEEQAQQIRLQAEAFQARLKPLVEDMQRQWAGLVEKVQAAVGTSAAPVPSDNH
# notes: Discoidal lipoprotein particle with POPC; Engineered truncation variant of APOE3; also called PP11/POPC
# B8: PP128: novel truncated apolipoprotein variant SEQ ID NO: 880 (protein)
# chain: B7 chain with R136S, V192E
# B9: LPS3 lipoprotein system (PP11 with POPC, polypeptide:lipid 1:90) (other)
# chain: B7 chain
# notes: Discoidal lipoprotein particle with POPC at 1:90 mol/mol; also called PP11/POPC
# B10: PP127: novel truncated apolipoprotein variant SEQ ID NO: 879 (protein)
# chain: B7 chain with V192E
# B11: PP126: novel truncated apolipoprotein variant SEQ ID NO: 878 (protein)
# chain: B7 chain
# B12: PP129: novel truncated apolipoprotein variant SEQ ID NO: 881 (protein)
# chain: B7 chain with R136S, V192E, L228Q
# B13: BDNF: brain-derived neurotrophic factor, a neurotherapeutic growth factor (protein, UniProt P23560 19-247, looked up)
# Neurotrophic factor BDNF …: APMKEANIRGQGGLAYPGVRTHGTLESVNGPKAGSRGLTSLADTFEHVIEELLDEDQKVRPNEENNKDADLYTSRVMLSSQVPLEPPLLFLLEEYKNYLDAANMSMRVRRHSDPARRGELSVCDSISEWVTAADKKTAVDMSGGTVTVLEKVPVSKGQLKQYFYETKCNPMGYTKEGCRGIDKRHWNSQCRTTQSYVRALTMDSKKRIGWRFIRIDTSCVCTLTIKRGR
# Legend:
# NPC1 = conditions: administered directly to the CNS; cited from earlier work
# NPC1 models = conditions: cited from earlier work
# [1] = tested on: mouse model of tauopathy with Parkinsonism; conditions: trehalose consumption; cited from earlier work
# [2] = tested on: cellular model for Huntington's disease; conditions: in vitro treatment; cited from earlier work
# [3] = DMPC liposome clearance by lipid-free apolipoproteins (A325); assay type: biochemical; conditions: lipid-free apolipoprotein, protein:lipid 1:75, A325 over 90 minutes
# Method: To assess the ability of lipid-free apolipoproteins to remodel DMPC liposomes, aliquots of purified polypeptide were allowed to thaw at 2-8° C. Aqueous 0.5 M tris(2-carboxyethyl)phosphine (TCEP) solution was then added to the polypeptide solution (1.5 μL per 200 μg polypeptide) to reduce any disulfide bonds that formed during storage. After incubation for >30 minutes at 2-8° C., the mixture was buffer exchanged into PBS (2 mM KH2PO4, 10 mM Na2HPO4, 140 mM NaCl, 3 mM KCl, pH 7.4) using a spin desalting column (ThermoFisher) following the manufacturer's instructions. After buffer exchange, the concentration of the polypeptide was determined by measuring the sample's absorbance at 280 nm (A280). In parallel, a mixture of DMPC (1,2-dimyristoyl-sn-glycero-3-phosphocholine) in detergent-free lipid buffer (20 mM Tris HCl, 100 mM NaCl, pH 7.4) was prepared from neat DMPC powder and adjusted to about 10 mM.
# The polypeptide and DMPC solutions were combined in technical duplicate or triplicate in a UV-transparent 96-well plate (Corning) such that the molar ratio of protein:lipid was 1:75. The absorbance of the wells at 325 nm was measured every minute for 90 minutes.
# Polypeptides PP124 (SEQ ID NO: 876), PP125 (SEQ ID NO: 877), PP126 (SEQ ID NO: 878), PP127 (SEQ ID NO: 879), PP128 (SEQ ID NO: 880), and PP129 (SEQ ID NO: 881) were expressed, harvested, and purified using the methods described herein (see, e.g., Example 1). The ability of these novel apolipoprotein variants to interact with and remodel DMPC liposomes was assessed to serve as a simplified proxy of the disc assembly process. The rate at which apolipoproteins achieve such remodeling is related to the facility with which they form the lipoprotein systems described in the present invention.
# [4] = target: human low-density lipoprotein receptor (LDLR) protein (human, UniProt P01130 22-788, limits assumed); assay: SPR (Biacore 4000), human LDLR captured on a Protein A chip, lipoprotein as analyte, 1:1 model fit
# Method: (§1) A surface plasmon resonance (SPR) method was developed to assess the binding response between the lipoprotein samples and the low-density lipoprotein receptor (LDLR). This interaction is relevant to the discs because the LDLR/APOE pathway plays a pivotal role in cholesterol homeostasis and lipid metabolism. Experiments were performed on a Biacore 4000 with human LDLR protein captured on a Protein A chip. For the binding studies, lipoprotein samples were diluted and tested in a 3-fold dilution series. Samples were injected for 2-3 minutes at 30 μL/min and the dissociation phase was monitored for 5-10 minutes. Response data were processed by subtracting the data from a reference surface (i.e., without receptor captured) and a buffer injection. The processed data were globally fit to a 1:1 interaction model to extract estimates of the binding constants.
# Target sequence in this assay (P01130 22-788 limits assumed): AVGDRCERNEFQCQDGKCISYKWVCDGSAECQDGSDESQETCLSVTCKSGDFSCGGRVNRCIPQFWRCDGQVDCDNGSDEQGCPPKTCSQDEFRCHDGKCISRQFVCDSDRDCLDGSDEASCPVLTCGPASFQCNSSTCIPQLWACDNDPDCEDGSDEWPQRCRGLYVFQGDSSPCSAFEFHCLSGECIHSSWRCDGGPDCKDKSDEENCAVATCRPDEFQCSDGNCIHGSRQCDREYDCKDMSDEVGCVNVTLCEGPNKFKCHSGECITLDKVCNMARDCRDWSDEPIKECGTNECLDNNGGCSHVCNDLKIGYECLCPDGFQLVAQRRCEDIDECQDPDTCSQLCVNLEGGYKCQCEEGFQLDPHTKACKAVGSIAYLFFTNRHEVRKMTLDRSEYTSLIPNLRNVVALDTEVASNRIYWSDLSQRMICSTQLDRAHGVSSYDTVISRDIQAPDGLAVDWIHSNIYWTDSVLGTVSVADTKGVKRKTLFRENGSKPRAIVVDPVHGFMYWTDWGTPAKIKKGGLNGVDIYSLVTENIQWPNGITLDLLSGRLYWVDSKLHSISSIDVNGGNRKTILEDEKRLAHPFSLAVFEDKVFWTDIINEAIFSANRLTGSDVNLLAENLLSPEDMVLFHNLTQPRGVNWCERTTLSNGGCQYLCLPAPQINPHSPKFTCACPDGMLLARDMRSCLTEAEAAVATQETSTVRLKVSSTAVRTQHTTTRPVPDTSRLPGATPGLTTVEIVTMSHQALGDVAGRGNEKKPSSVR
# [5] = target: T1, human low-density lipoprotein receptor (LDLR) protein (human, UniProt P01130 22-788, limits assumed); assay: SPR (Biacore 4000), human LDLR captured on Protein A chip
# T1 construct: The receptor was captured on a Protein A chip in the SPR assay
# Method: as §1
# T1 sequence (P01130 22-788 limits assumed): as above
# [6] = tested on: experimental models of stroke, global brain ischemia, prion diseases, AD, PD, HD, ALS; conditions: intracerebral administration; cited from earlier work
molecule,measurement,setting,value
2-hydroxypropyl-β-cyclodextrins [HPβCD],efficacy,NPC1,far greater HPβCD efficacy at much lower doses
same,crossing of the blood-brain barrier,"NPC1 models; mouse, in vivo",does not cross the blood-brain barrier in significant amounts
same,CNS manifestations,"NPC1 models; subcutaneously or intraperitoneally, very high doses",can moderately impact CNS manifestations
OC[C@H]1O[C@H](O[C@H]2O[C@H](CO)[C@@H](O)[C@H](O)[C@H]2O)[C@H](O)[C@@H](O)[C@@H]1O [trehalose],anxiety-related behavior,[1],Reduced anxiety-related behavior
same,motor function,[1],improved motor function
same,tau pathology,[1],decreased tau pathology
same,polyglutamine aggregates and cell survival,[2],decreased polyglutamine aggregates and/or improved cell survival
"PP1: natural human APOE isoform APOE2; SEQ ID NO: 267, 268 in b698",Rate of DMPC clearance Ka,[3],0.0032 s⁻¹
"PP2: natural human APOE isoform APOE 3; SEQ ID NO: 268, 267 in b698",Rate of DMPC clearance Ka,[3],0.0145 s⁻¹
B1,Kd,[4],~385 pM
B2,fold difference in KD compared to POPC lipoproteins with PP2 or PP28,[5],≤ 5 fold
B3,Kd,[4],~330 pM
B4,Rate of DMPC clearance Ka,[3],0.0221 s⁻¹
B5,fold difference in KD compared to POPC lipoproteins with PP2 or PP28,[5],≤ 5 fold
B6,Rate of DMPC clearance Ka,[3],0.0247 s⁻¹
B7,Kd,[4],~125 pM
B8,Rate of DMPC clearance Ka,[3],0.0149 s⁻¹
B9,fold difference in KD compared to POPC lipoproteins with PP2 or PP28,[5],≤ 5 fold
B10,Rate of DMPC clearance Ka,[3],0.0058 s⁻¹
B11,Rate of DMPC clearance Ka,[3],0.0383 s⁻¹
B12,Rate of DMPC clearance Ka,[3],0.0068 s⁻¹
B13,neuroprotection,[6],neuroprotective
